PMC7568252, “Recombinant expression of an L‐amino acid oxidase from the fungus Hebeloma cylindrosporum in Pichia pastoris including fermentation” (MicrobiologyOpen, 2020)

Assays:
Assay in all cases: purified protein
Settings in all cases: untreated (not acid-activated) enzyme, 50 mM TEA/HCl pH 7.0, 30°C
purified protein [1] = substrate: NC(=O)CC[C@H](N)C(=O)O
purified protein [2] = substrate: CC(C)C[C@H](N)C(=O)O
purified protein [3] = substrate: N[C@@H](Cc1ccccc1)C(=O)O
purified protein [4] = substrate: CSCC[C@H](N)C(=O)O
purified protein [5] = substrate: COC(=O)[C@@H](N)CC(C)C

B1: 9-hcLAAO4 (9His-hcLAAO4) (Hebeloma cylindrosporum) (protein)
chain: ADTTSVPFDAESRDQIFQHHARSVISGYTNTLGEKNISVPSSPPGGERVGILGAGIGGLYSALILQSLDVPFEIIEASNRVGGRLFTHKFPNGGKYDYYDVGAMRYPLPKSDDKGNYQPGVMQRVGQLFTYLGMHKQLIPYYFKSNKSPGFQYFNGVRARIGEGSSFDAPALGINSSLIDIGVTKIVNDAVGPFAQALFDDLQKHTTTGWDDMMKNDAYSTRSYFSFKYLPSPSFGLPSEHFSTRVINWLETFDKSTGWYDRGLTETVLEAIAFGEVGDGEVDWRCIDGGSHVLPDTIAAFLHKKGGNAFVMNASVTAIGLENPNKEDSPMVVVAGGQKRKYSHVISTLPLPVLRTVDLKNSKLDIVQSNALRKLQYGPSIKIGILFKEPWWTTGQDKNGEKFDLVGGQSYTDLPIRTVVYPSYGVNTNAPSNTLIASYCWTNDAERMGSLIGTGKKTYEEQLEHLVLSNLAAVHNTDYQYLKDRLVDVHSWDWNHNPLTMGAFAFFGPGDFQDLYTSLNRPAANGKLHFAGEALSVRHAWVVGALDSAWRAVYNYLYVTDPAKLPKFFELWGKNAEWFEQPGDGKEPNSDNSLLEKFVRRTHGTVSV
Purified protein [1]
  Km: 0.51 ± 0.11 mM
  Vmax: 8.87 µmol/min/mg
Purified protein [2]
  Km: 0.04 ± 0.04 mM
  Vmax: 7.67 µmol/min/mg
Purified protein [3]
  Km: 0.07 ± 0.07 mM
  Vmax: 3.25 µmol/min/mg
Purified protein [4]
  Km: 0.16 ± 0.10 mM
  Vmax: 5.98 µmol/min/mg
Purified protein [5]
  Km: 3.01 ± 0.68 mM
  Vmax: 8.41 µmol/min/mg
